From publication PMC3241732 (The Journal of Cell Biology, 2011)
Each block holds one binder with its values, some of them ahead of it.

Molecular target: T1, His6-Cdc12 (Saccharomyces cerevisiae, UniProt P32468 1-407)
T1 sequence: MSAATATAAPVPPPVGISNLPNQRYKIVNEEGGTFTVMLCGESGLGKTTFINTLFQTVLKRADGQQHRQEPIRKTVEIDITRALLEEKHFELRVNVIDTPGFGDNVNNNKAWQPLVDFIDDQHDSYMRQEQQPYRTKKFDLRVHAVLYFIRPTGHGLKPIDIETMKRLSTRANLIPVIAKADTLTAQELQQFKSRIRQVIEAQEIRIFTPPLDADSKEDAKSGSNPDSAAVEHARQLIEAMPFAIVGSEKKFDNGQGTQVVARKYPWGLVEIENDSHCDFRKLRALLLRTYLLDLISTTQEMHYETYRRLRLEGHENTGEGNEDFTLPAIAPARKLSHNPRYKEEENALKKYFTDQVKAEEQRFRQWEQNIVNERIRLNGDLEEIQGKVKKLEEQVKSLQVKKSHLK
Assay: negative-stain EM, single-particle class averages

percent of particles that are heptamers: 15%
percent of particles that are hexamers: 38%
percent of particles that are octamers: 47%
B1: Shs1 (natural protein)
chain: MSTASTPPINLFRRKKEHKRGITYTMLLCGPAGTGKTAFANNLLETKIFPHKYQYGKSNASISSNPEVKVIAPTKVVSFNSKNGIPSYVSEFDPMRANLEPGITITSTSLELGGNKDQGKPEMNEDDTVFFNLIMTHGIGENLDDSLCSEEVMSYLEQQFDIVLAEETRIKRNPRFEDTRVHVALYFIEPTGHGLREVDVELMKSISKYTNVLPIITRADSFTKEELTQFRKNIMFDVERYNVPIYKFEVDPEDDDLESMEENQALASLQPFAIITSDTRDSEGRYVREYPWGIISIDDDKISDLKVLKNVLFGSHLQEFKDTTQNLLYENYRSEKLSSVANAEEIGPNSTKRQSNAPSLSNFASLISTGQFNSSQTLANNLRADTPRNQVSGNFKENEYEDNGEHDSAENEQEMSPVRQLGREIKQENENLIRSIKTESSPKFLNSPDLPERTKLRNISETVPYVLRHERILARQQKLEELEAQSAKELQKRIQELERKAHELKLREKLINQNKLNGSSSSINSLQQSTRSQIKKNDTYTDLASIASGRD

percent of particles that are octamers: 72%
B2: Shs1(Δ349–551) (domain or fragment)
chain: MSTASTPPINLFRRKKEHKRGITYTMLLCGPAGTGKTAFANNLLETKIFPHKYQYGKSNASISSNPEVKVIAPTKVVSFNSKNGIPSYVSEFDPMRANLEPGITITSTSLELGGNKDQGKPEMNEDDTVFFNLIMTHGIGENLDDSLCSEEVMSYLEQQFDIVLAEETRIKRNPRFEDTRVHVALYFIEPTGHGLREVDVELMKSISKYTNVLPIITRADSFTKEELTQFRKNIMFDVERYNVPIYKFEVDPEDDDLESMEENQALASLQPFAIITSDTRDSEGRYVREYPWGIISIDDDKISDLKVLKNVLFGSHLQEFKDTTQNLLYENYRSEKLSSVANAEEIGP

percent of particles that are heptamers: 10%
percent of particles that are hexamers: 4%
percent of particles that are octamers: 86%
B3: Cdc11 (natural protein)
chain: MSGIIDASSALRKRKHLKRGITFTVMIVGQSGSGRSTFINTLCGQQVVDTSTTILLPTDTSTEIDLQLREETVELEDDEGVKIQLNIIDTPGFGDSLDNSPSFEIISDYIRHQYDEILLEESRVRRNPRFKDGRVHCCLYLINPTGHGLKEIDVEFIRQLGSLVNIIPVISKSDSLTRDELKLNKKLIMEDIDRWNLPIYNFPFDEDEISDEDYETNMYLRTLLPFAIIGSNEVYEMGGDVGTIRGRKYPWGILDVEDSSISDFVILRNALLISHLHDLKNYTHEILYERYRTEALSGESVAAESIRPNLTKLNGSSSSSTTTRRNTNPFKQSNNINNDVLNPASDMHGQSTGENNETYMTREEQIRLEEERLKAFEERVQQELLLKRQELLQREKELREIEARLEKEAKIKQEE
